Measurements: US20070161569A1 (GENERAL HOSPITAL, published 2007)
Non-standard residues stand in square brackets, D forms with d. No end group written: not given here. hArg = N=C(N)NCCCC[C@H](N)C(=O)O; Ac5c = NC1(C(=O)O)CCCC1; Deg = CCC(N)(CC)C(=O)O; Ac3c = NC1(C(=O)O)CC1; Aib = CC(C)(N)C(=O)O

What was measured:
[1] = biological target: T1, P1R-delNt, a recombinant human PTH-1 receptor construct in which most of the amino-terminal extracellular … (human, UniProt Q03431 23-593, limits assumed); experiment: cell-based or functional assay
T1 sequence (looked up): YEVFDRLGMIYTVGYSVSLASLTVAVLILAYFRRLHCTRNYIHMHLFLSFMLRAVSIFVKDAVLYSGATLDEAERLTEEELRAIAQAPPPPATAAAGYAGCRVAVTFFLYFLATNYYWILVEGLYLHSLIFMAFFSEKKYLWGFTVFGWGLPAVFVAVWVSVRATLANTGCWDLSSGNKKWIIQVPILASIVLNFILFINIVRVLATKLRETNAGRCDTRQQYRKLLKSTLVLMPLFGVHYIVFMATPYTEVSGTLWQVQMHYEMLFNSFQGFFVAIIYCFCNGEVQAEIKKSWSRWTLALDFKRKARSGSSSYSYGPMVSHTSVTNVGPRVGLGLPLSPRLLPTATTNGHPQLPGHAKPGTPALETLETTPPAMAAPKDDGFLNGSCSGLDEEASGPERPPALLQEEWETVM

[2] = biological target: T2, recombinant P1R chimera expressed in HKRK-B28 cells (opossum P1R from the N-terminus to the mid region of … (opossum; rat, UniProt P25107 27-288; P25961 295-591, limits assumed); experiment: competition binding to the P1R (HKRK-B28 cells by the FIG. 3 legend)
T2 construct: domain: N-terminus to the mid region of TM3;domain: mid region of TM3 to the C-terminus; also called PTH-1 receptor; receptor of HKRK-B28 cells
Method: Competition Binding. Binding reactions were performed with HKRK-B28 cells or in COS-7 cells in 24-well plates. The cells were rinsed with 0.5 mL of binding buffer, and then treated successively with 100 μL binding buffer, 100 μL of binding buffer containing various amounts of unlabeled competitor ligand, and 100 μL of binding buffer containing ca. 100,000 cpm of ¹²⁵I-[Aib^{1,3},Nle⁸,Gln¹⁰,Har¹¹,Ala¹²,Trp¹⁴,Arg¹⁹,Tyr²¹]rPTH(1-21) (SEQ. ID. NO. 36) (ca. 26 fmol; final volume=300 μL). Incubations were 4 to 6 h at 4° C., at which time near equilibrium conditions were attained. Cells were then placed on ice, the binding medium was removed, and the monolayer was rinsed three times with 0.5 mL of cold binding buffer. The cells were subsequently lysed with 0.5 mL 5N NaOH and counted for radioactivity. For each tracer and in each experiment, the non-specific binding was determined as the radioactivity that bound in the presence of the same unlabeled peptide at a concentration of 1 μM, and was ˜1% of total radioactivity added for each tracer. The maximum specific binding (B₀) was the total radioactivity bound in the absence of competing ligand, corrected for nonspecific binding, and for each tracer, ranged from 8% to 20% of the total radioactivity added. Nonlinear regression was used to calculate binding IC₅₀ values (see below). […]

[3] = biological target: T2, recombinant P1R chimera expressed in …; experiment: cell-based or functional assay
[4] = biological target: T2, recombinant P1R chimera expressed in …; experiment: competition binding on B28 cells against 125I-PTH(1-21) tracer (SEQ ID NO 36)
Method: (§1) Competition Binding. Binding reactions were performed with HKRK-B28 cells or in COS-7 cells in 24-well plates. The cells were rinsed with 0.5 mL of binding buffer, and then treated successively with 100 μL binding buffer, 100 μL of binding buffer containing various amounts of unlabeled competitor ligand, and 100 μL of binding buffer containing ca. 100,000 cpm of ¹²⁵I-[Aib^{1,3},Nle⁸,Gln¹⁰,Har¹¹,Ala¹²,Trp¹⁴,Arg¹⁹,Tyr²¹]rPTH(1-21) (SEQ. ID. NO. 36) (ca. 26 fmol; final volume=300 μL). Incubations were 4 to 6 h at 4° C., at which time near equilibrium conditions were attained. Cells were then placed on ice, the binding medium was removed, and the monolayer was rinsed three times with 0.5 mL of cold binding buffer. The cells were subsequently lysed with 0.5 mL 5N NaOH and counted for radioactivity. For each tracer and in each experiment, the non-specific binding was determined as the radioactivity that bound in the presence of the same unlabeled peptide at a concentration of 1 μM, and was ˜1% of total radioactivity added for each tracer. The maximum specific binding (B₀) was the total radioactivity bound in the absence of competing ligand, corrected for nonspecific binding, and for each tracer, ranged from 8% to 20% of the total radioactivity added. Nonlinear regression was used to calculate binding IC₅₀ values (see below). Scatchard transformations of homologous competition binding data derived from studies with 26 fmol of ¹²⁵I-[Aib^{1,3},Nle⁸,Gln¹⁰,Har¹¹,Ala¹²,Trp¹⁴, Arg¹⁹,Tyr²¹]rPTH(1-21) (SEQ. ID. NO. 36) were employed for estimations of apparent equilibrium dissociation constant (kDapps) and total number of ligand binding sites (Bₘₐₓ), assuming a single class of binding sites and equal affinities of the iodinated and non iodinated ligand.

[5] = biological target: T2, recombinant P1R chimera expressed in …; experiment: competition binding on HKRK-B28 cells against 125I-PTH(1-21) tracer (SEQ ID NO 36)
Method: as §1, with “Incubations” for “Competition Binding. Binding reactions were performed with HKRK-B28 cells or in COS-7 cells in 24-well plates. The cells were rinsed with 0.5 mL of binding buffer, and then treated successively with 100 μL binding buffer, 100 μL of binding buffer containing various amounts of unlabeled competitor ligand, and 100 μL of binding buffer containing ca. 100,000 cpm of ¹²⁵I-[Aib^{1,3},Nle⁸,Gln¹⁰,Har¹¹,Ala¹²,Trp¹⁴,Arg¹⁹,Tyr²¹]rPTH(1-21) (SEQ. ID. NO. 36) (ca. 26 fmol; final volume=300 μL). Incubations”, “ligand. […]” for “ligand.”

[6] = biological target: T3, wild-type human P1R transiently expressed in COS-7 cells (human, UniProt Q03431 27-593); experiment: cell-based or functional assay
T3 sequence (looked up): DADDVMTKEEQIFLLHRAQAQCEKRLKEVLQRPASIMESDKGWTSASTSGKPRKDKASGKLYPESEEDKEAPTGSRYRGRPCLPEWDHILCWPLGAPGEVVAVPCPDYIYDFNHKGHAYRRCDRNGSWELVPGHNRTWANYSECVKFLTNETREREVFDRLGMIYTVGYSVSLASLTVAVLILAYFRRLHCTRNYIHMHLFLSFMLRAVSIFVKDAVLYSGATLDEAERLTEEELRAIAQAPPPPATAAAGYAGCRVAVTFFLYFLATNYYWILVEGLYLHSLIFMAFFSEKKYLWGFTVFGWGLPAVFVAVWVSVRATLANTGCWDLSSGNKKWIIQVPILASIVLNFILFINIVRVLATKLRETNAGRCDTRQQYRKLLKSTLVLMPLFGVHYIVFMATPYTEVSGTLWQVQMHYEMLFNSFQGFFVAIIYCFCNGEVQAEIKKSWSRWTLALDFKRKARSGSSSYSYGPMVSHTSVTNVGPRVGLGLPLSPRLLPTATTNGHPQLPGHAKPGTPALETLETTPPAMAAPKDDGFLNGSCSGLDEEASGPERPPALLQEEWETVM

T2 sequence (P25107 other isoform, or with tags, fused parts or gaps limits assumed): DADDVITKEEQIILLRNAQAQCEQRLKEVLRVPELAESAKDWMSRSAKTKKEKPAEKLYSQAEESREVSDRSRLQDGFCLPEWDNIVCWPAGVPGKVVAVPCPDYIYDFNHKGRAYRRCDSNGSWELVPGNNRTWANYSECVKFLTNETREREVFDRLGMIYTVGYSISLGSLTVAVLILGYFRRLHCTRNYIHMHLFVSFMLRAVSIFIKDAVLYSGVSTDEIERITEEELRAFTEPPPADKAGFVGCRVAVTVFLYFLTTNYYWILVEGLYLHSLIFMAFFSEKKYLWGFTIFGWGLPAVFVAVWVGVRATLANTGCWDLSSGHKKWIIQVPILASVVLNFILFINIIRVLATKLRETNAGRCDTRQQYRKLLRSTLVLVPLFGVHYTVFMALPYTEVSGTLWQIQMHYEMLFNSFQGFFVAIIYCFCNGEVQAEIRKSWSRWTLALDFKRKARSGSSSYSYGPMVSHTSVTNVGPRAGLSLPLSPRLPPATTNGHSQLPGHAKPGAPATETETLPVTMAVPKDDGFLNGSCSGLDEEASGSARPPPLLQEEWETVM

B1: [Deg^1,3,Gln^10,Har^11,Ala^12,Trp^14]PTH(1-14)NH2 (peptide)
peptide: [Deg]V[Deg]EIQLMHQ[hArg]AKW-NH2
modifications: N-terminus assumed
SMILES: CC[C@H](C)[C@H](NC(=O)[C@H](CCC(=O)O)NC(=O)C(CC)(CC)NC(=O)[C@@H](NC(=O)C(N)(CC)CC)C(C)C)C(=O)N[C@@H](CCC(N)=O)C(=O)N[C@@H](CC(C)C)C(=O)N[C@@H](CCSC)C(=O)N[C@@H](Cc1c[nH]cn1)C(=O)N[C@@H](CCC(N)=O)C(=O)N[C@@H](CCCCNC(=N)N)C(=O)N[C@@H](C)C(=O)N[C@@H](CCCCN)C(=O)N[C@@H](Cc1c[nH]c2ccccc12)C(N)=O
notes: also called [Deg^1,3,M]PTH(1-14)
cAMP EC50 in LdelNt-2 cells [1]: 1400 nM
cAMP Emax over basal in LdelNt-2 cells (partial agonist behavior) [1]: 23 fold
fold higher affinity than the parent peptide [2]: 50 fold

B2: [Ac5c^1,3,Gln^10,Har^11,Ala^12,Trp^14]PTH(1-14)NH2 (peptide)
peptide: [Ac5c]V[Ac5c]EIQLMHQ[hArg]AKW-NH2
notes: also called [Ac5c^1,3,M]PTH(1-14)
cAMP signaling, fold more potent than the parent peptide [3]: 30 fold
fold higher affinity than the parent peptide [2]: 20 fold

B3: [M]PTH(1-14) analog in which alanine-3 is substituted with 1-aminocyclopropane-1-carboxylic acid (Ac3c) (peptide)
peptide: AV[Ac3c]EIQLMHQ[hArg]AKW-NH2
modifications: N-terminus assumed
SMILES: CC[C@H](C)[C@H](NC(=O)[C@H](CCC(=O)O)NC(=O)C1(NC(=O)[C@@H](NC(=O)[C@H](C)N)C(C)C)CC1)C(=O)N[C@@H](CCC(N)=O)C(=O)N[C@@H](CC(C)C)C(=O)N[C@@H](CCSC)C(=O)N[C@@H](Cc1c[nH]cn1)C(=O)N[C@@H](CCC(N)=O)C(=O)N[C@@H](CCCCNC(=N)N)C(=O)N[C@@H](C)C(=O)N[C@@H](CCCCN)C(=O)N[C@@H](Cc1c[nH]c2ccccc12)C(N)=O
notes: also called Ac3c^3-containing analog; Ac3c-3
cAMP-stimulating potency, fold increase over the parent analog [3]: < 2 fold
fold lower affinity than [M]PTH(1-14) [4]: 14 fold
fold reduced affinity relative to the parent analog [5]: ~10 fold

B4: [Ac5c^1,Aib^3,Gln^10,Har^11,Ala^12,Trp^14]PTH(1-14)NH2 (peptide)
peptide: [Ac5c]V[Aib]EIQLMHQ[hArg]AKW-NH2
notes: also called [Ac5c^1,Aib^3,M]PTH(1-14)
cAMP potency (EC50) [3]: 0.9 nM
increase in cAMP levels relative to basal, peptide at 10 nM, HKRK-B28 cells [3]: 38 fold
stimulating adenylyl cyclase, fold more potent than [Aib^1,3,M]PTH(1-14) [3]: 2 fold
stimulating phospholipase C, fold more potent than [Aib^1,3,M]PTH(1-14) [6]: 2 fold
cAMP EC50 in LdelNt-2 cells [1]: 6.4 nM
increase in cAMP accumulation in LdelNt-2 cells [1]: 70 fold
IC50 [4]: 100 nM
fold more potent than [Aib^1,3,M]PTH(1-14) for inhibiting tracer binding [4]: 2 fold
